Results reported in PMC3897609, “Heparanase Interacts with Resistin and Augments Its Activity” (PLoS ONE, 2014).

Biological target: T1, cMyc-tagged 65-kDa latent heparanase (human, UniProt Q9Y251 36-543)
T1 construct: heparanase, human, 65-kDa latent (unprocessed) form; also called cMyc-latent heparanase; latent cMyc-heparanase; source: medium conditioned by heparanase infected CHO cells, purified (heparin column)
T1 sequence (looked up): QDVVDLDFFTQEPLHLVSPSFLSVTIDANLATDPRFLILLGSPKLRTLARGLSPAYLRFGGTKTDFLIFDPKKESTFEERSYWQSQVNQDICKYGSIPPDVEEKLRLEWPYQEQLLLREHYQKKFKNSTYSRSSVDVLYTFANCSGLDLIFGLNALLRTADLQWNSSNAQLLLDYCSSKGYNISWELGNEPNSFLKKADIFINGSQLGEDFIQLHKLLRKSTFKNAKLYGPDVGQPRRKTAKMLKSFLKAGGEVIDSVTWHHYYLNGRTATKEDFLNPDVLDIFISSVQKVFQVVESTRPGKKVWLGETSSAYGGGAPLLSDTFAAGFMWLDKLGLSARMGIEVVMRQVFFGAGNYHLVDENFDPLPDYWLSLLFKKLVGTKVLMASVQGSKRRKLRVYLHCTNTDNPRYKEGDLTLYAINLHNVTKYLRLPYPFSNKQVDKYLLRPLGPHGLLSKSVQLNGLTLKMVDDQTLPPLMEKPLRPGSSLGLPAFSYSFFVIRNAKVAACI
Assay: ELISA; competition: cMyc latent heparanase as coating layer; analyte resistin (200 ng/ml) preincubated 30 min at RT with the competitor (active heparanase, or leptin as control); bound resistin detected by anti resistin antibodies
Conditions: both partners purified

binding result: binds
B1: human recombinant resistin expressed in HEK 293 (natural protein, UniProt Q9HD89 19-108, looked up)
chain: KTLCSMEEAINERIQEVAGSLIFRAISSIGLECQSVTSRGDLATCPRGFAVTGCTCGSACGSWDVRAETTCHCQCAGMDWTGARCCRVQP
notes: resistin, human, recombinant; Runs as a 12 kDa band under reducing conditions; also called RETN; source: HEK 293, pure preparation, gift from Serono
